The experiment addresses T1, F12Q CAR.
T1 construct: also called F12Qz CAR; F12Q chimeric receptor
In words: flow cytometry; K562.64.86.F12Qz cells stained with soluble biotinylated CD3 epsilon, then streptavidin-PE. For orientation: A flow cytometer gives signals particle by particle.

B1: Biotinylated Human CD3 epsilon Protein (AcroBiosystems Cat #CDE-H82E1) (other, UniProt P07766 23-126, looked up)
chain: DGNEEMGGITQTPYKVSISGTTVILTCPQYPGSEILWQHNDKNIGGDEDDKNIGSDEDHLSLKEFSELEQSGYYVCYPRGSKPEDANFYLYLRARVCENCMEMD
modifications: biotinylated
notes: Bought reagent; also called soluble CD3-epsilon protein; soluble, biotinylated CD3ε protein
B1: the binding result was “binds”.

The record behind these values is patent US20230000916A1 (University of Pennsylvania, published 2023).
